This sample holds only a part of the variants without activity.
B1: TPR 5TU (parent)
chain: GGAUCUUCUCGAUCUAACAAAAAAGACAAAUCUGCCACAAAGCUUGAGAGCAUCUUCGGAUGCAGAGGCGGCAGCCUUCGGUGGCGCGAUAGCGCCAACGUUCUCAACUAUGACACGCAAAACGCGUGCUCCGUUGAAUGGAGUUUAUCAUG

Variants of: B1
Test: polymerase ribozyme fitness, log enrichment relative to wild type (log ratio); higher = more active; in vitro selection for triplet polymerase activity
In short: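 Each subunit of a heterodimeric triplet polymerase ribozyme was represented by a PCR-built, transcribed mutant library that underwent triplicate single-round in vitro selection with frozen incubation at −7 °C. Extended constructs were recovered by gel excision, streptavidin-bead capture and RT-PCR, and Illumina sequencing of input and output libraries kept genotypes with ≥10 input reads and ≥1 read per output. Fitness is the logarithm of genotype enrichment relative to wild-type enrichment, from inverse-variance-weighted replicate averages, with a logarithm base of 2.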

Variant | polymerase ribozyme fitness (log ratio)
GGAUCUUCUCGAUCUAACAAAAAAGACAAAUCUGCCACAAAGCUUGAGAGCAUCUUCGGAUGCAGAGGCGGCGGCCUUCGGUGGCGCGAUAGCGCCAACGCUCUCAACUAUGACACGCAAAACGCGUGCUCCGUUGAAUGGAGUUUAUCAUG | 0.659
GGAUCUUCUCGAUCUAACAAAAAAGACAAAUCUGCCACAUAGCUUGAGAGCAUCUACGGAUGCAGAGGCGGCAGCCUUCGGUGGGGCGAUAGCGCCAACGUUCUCAACUAUGAGACGCAAAACGCGUGCUCCGUUGAAUGGAGUUUAUCAUG | -3.79
GGAUCUUCUCGAUCUAACAAAAAAGACAAAUCUGCCACAAAGCUUGAGAGCAUCUUCGCAUGCAGAGGCGGCAGCCUUCGGUGGCGCGAUAGCGCCAACGUUCUCAACUAUGACACGCUAAACGCGUGCUCCGUUGAAUGGAGUUUAUUAUG | -0.775
GGAUCUUCUCGAUCUAACAAAAAAGACAAAUCUGCCACAAAGCUUGAGAGCAUCUUCGGAUGCAGAGGCGGCAGCCUUCGGUGGCGCGAUAUCGCCAACGUUCUCAACUAUGACCCGCAAAACGCGUGCUCCGUUGAAUGGAGUUUAUCAUG | -2.23
GGAUCUUCUCGAUCUAUCAAAAAAGACACAUCUGCCACAAGGCUUGAGAGCAUCUUCGCAUGCAGAGGCGGCAGCCUUCGGUGGGGCGAUAGCGCCAACGUUCUCAACUAUGACACGCAAAACGCGUGCUCCGUUGAAUGGAGUUUAUCAUG | ≤ -4.2
GGAUCUUCUCGAUCUAACAAAAAAGACAAAUCUGCCACAAAGCUUGAGAGCAUAUUCGGAUGCAGAGGCGGCAGCCUUCGGUGGUGCGAUAGCGCCAACGUUCUUAACUAUGACACGCAAAACGCGUGCUCCGUUGAAUGGCGUUUAUCAUG | -2.12
GGAUCUUCUCGAUCUAACAAAUAAGACAAAUCUGCCACAAAGCUUGAGAGCGUCUUCGGAUGCAGAGGCGGCAGUCUUCGGUUGCGCGAUAGCGCCAACGUUCUCAACUAUGACACGCAAAACGCGUGCUCCGCUGAAUGGCGUUUAUCAUG | -3.51
GGAUCUUCUCGAUCUAACAAAAAAGACAUAUCAGCCACAAAGCUUGAGAGCAUCUUCGGAUGCAGAGGCGGCAGCCUUCGGUGGCGCGAUAGCGCCAACGUGCUCAACUAUGUCACGCAAAACGCGUGCUCCGUUGAAUGGAGCUUAUCAUG | ≤ -4.2
GGAUCUUCUCGAUCUAACAAAAAAGACAAAUCUGCCACAAAGCUUUAGAGCAUCUUCGGAUGCAGAGGCGGCAGCCUUCGGUGGCGCGAUCGCGCCAACGUUCUUAACUAUGAUACGCAAAACGCGUGCUCCGUUGAAUGGAGUUGAUCAUG | ≤ -4.2
GGAUCUUCUCGUUCUAACAAAAAAGACAAAUCUGCCACAAAGCUUGAGAGCAUCUUCGGAUGCAGAGGCGGCAGCCUUCGGUGGCGCGAUAGCGCCAACGUUCUCAACUAUGACACGCAAAACGCGUGCUCCGUUGAAUGGAGUUUUUCAUG | 0.945
GGAUCUUCUCGAUCUAACAAAAAAGACAAAUCUGCCACGAAGCUUGAGAGCAUCUUCGGAUGCAGAGGCGGCAGCCUUCGGUGGCGCGAUAGCGCCAACGUUCUCAACUAUGACCCGCAAAACGCGUGCUCCGUUGAAUGGAGUUUAUCAUG | -3.17
GGAUCUUCUCGAUUUAACAAAAAAGACAAAUCUGCCACAAAGCUUGAGAGCAUCAUCGGAUGCAGAGGCGGCAGCCUUCGGUGGCGCGAUAGCGCCAACGUUCUCAACUAUGACACGCAAAACGCGUGCUCCGUUGAAUGGAGUUUAUCAUG | -1.33
GGAUCUUCUCGAUCUAACAAAAAAGACAAAUCUGCCAGAAAGCUUGAGCGCAUCUUCGGAUGCAGAGGCGGCAGCGUUCGGUGGCGCGAUAGUGCCAACGUUCUCAACUAUGACACGCAAAACGAGUGCUCCGUAGAAUGGACAUUAUCAUG | ≤ -4.2
GGAUCUUCUCGAUCUAACAAAAAAGACAAAUCUGCCACAAAGCUUGAGAGCAUCAUCGGAUGCAGAGGCGGCAGCCUUCGGUGGCGCGAUGGCGCCAACGUUCUCAACUAUGACACGCAAAACGCGUGCUCCGUUGAAUGGAGUUUAUCAUG | -2.86
GGAUCUUCUCGAUCUAACAAAAAAGAUAAAUAUGCCACAAAGCUUUCGAGCAACUUCGGAUGCAGAGGCGGCAGCCUUCGGUGGCGGGAUAGCGCCAACGUUCUCAACUAUGACACGCAAAACGCGUGCUCCGUUGAAUGGAGUUUAUCAUG | ≤ -4.2
GGAUCUUCGCGAUCUAACAAAAAAGACAAAUCUGCCACAAAGCUUGAGAGCAUCUUCCGAUGCAGAGGCGGCAGCCUUCGGUGGCGCGAUAGGGCCAACGUUCUCAACUAUGACACGUAAAACGCGUGCUCCGUUGAAUGGAACUUAUCAUG | ≤ -4.2
GGAUCUUCUCGAUCUAACAAAAAAGACAAAUCUGCAACAAAGCUUGAGAGCAUCUUCGGAUGCAGAGGCGGCAGCCUUCGGUGGCGCGAUAGCGUCAACGUUCUCAACUAUGACACGCAAAACGGGCGCUCCGUUGAAUGGAGUUUAUCAUG | ≤ -4.2
GGAUCUUCUGGAUCUAACAAAAAAGACAAAUCUGCCACAAAGCUUGAGAGCAUCUUCGGAUGCAGAGGCGGCAGCCUUCGGUGGUGCGAUAGCGCCAACGUUCUCAACUAUGACACGCAAAACGCGUGCUCCGUUGAAUGGAGUUUAUCAUG | -3
GGAUCUUCUCGAUCUAACAAAAAAGACAAAUCUGCCAUAAAGCUUGAGAGCAUCUUCGGAUGCAGAGGCGGCAGCCUUCGGUGUCGCGAUUGCGCCAACGUUCUCAACUAUGACACGCAAAACGCGUGCUCCGUUGAAUGGAGUUUAUCAUG | ≤ -4.2

Source: the RNAGym collection of RNA variant scans (doi:10.1073/pnas.2313332121)
